The target in experiment [1] is 23 amino acid synthetic M2e peptide of A/Fort Worth/1/50 (influenza A virus H1N1 A/Fort Worth/1/50). The experiment can be described thus: ELISA on 23mer M2e peptide coated at 1 µg/ml. In general terms: In an ELISA, binding on a coated surface is turned into a signal by an enzyme label.
Another experiment has as its target SEQ ID NO 308. The experiment can be described thus: peptide ELISA, mAb 5 µg/mL.
Another experiment has as its target SEQ ID NO 307. In words: peptide ELISA, mAb 5 µg/mL.
In a further experiment the target is SEQ ID NO 273. The experiment can be described thus: peptide ELISA, mAb 5 µg/mL.

“chimeric mouse V-region/human IgG1 kappa 14C2 antibody”: the EC50 in experiment [1] came out at 0.01 µg/mL.

B1: 23K12 (TCN-031) (antibody, V domains shown)
VH: EVQLVESGGGLVQPGGSLRISCAASGFTVSSNYMSWVRQAPGKGLEWVSVIYSGGSTYYADSVKGRFSFSRDNSKNTVFLQMNSLRAEDTAVYYCARCLSRMRGYGLDVWGQGTTVTVS
VL: DIQMTQSPSSLSASVGDRVTITCRTSQSISSYLNWYQQKPGKAPKLLIYAASSLQSGVPSRFSGSGSGTDFTLTISGLQPEDFATYYCQQSYSMPAFGQGTKLEIK
In the case of B1, the ELISA A450 worked out at 0.62 in the experiment with SEQ ID NO 308, 0.58 with SEQ ID NO 307 and 0.22 in the experiment with SEQ ID NO 273.

The EC50 is the concentration at which the effect is half-maximal. Lower therefore signals greater potency.

(Values after patent US20140363441A1 (priority 2013, published 2014).)
